Measurements reported in patent US20060258586A1, “Compositions and uses of secreted polypeptide, Zsig98” (priority 2005, published 2006).

Key:
[1] = test system: cisplatin- or syrup of ipecac-induced emesis; conditions: 3 mg/kg i.p.; cited from earlier work
[2] = molecular target: the molecule itself; assay: SDS PAGE of refolded synthetic peptide; self-association
strips of ileum = assay: guinea pig ileum organ bath contractility; conditions: isolated ileum strips
Description: In another model, male Hartley Guinea pigs at six weeks of age weighing approximately 0.5 kg are euthanized by carbon monoxide. Intestinal tissue is harvested as follows: 2-3 cm longitudinal sections of ileum 10 cm rostral of the cecum, and 2-3 cm longitudinal sections of duodenum, jejunum, and proximal and distal colon.
Tissue is washed in Krebs Ringer's Bicarbonate buffer containing 118.2 mM NaCl, 4.6 mM KCl, 1.2 mm MgS04, 24.8 mM NaHC03, 1.2 mM KH2P04, 2.5 mM CaCl2 and 10 mM glucose. […] Isometric contractions are measured with a force displacement transducer and recorded on a chart recorder using Po-ne-mah Physiology Platform Software. […]
Varying doses of Zsig98 from 1-400 ng/ml are tested for activity on strips of ileum. Muscle contractions are detected immediately after adding Zsig98 protein and are recorded at concentrations as low as 1 ng/ml or 100 picomolar. The EC 50 of this response is measured. […]
In another model, male Hartley Guinea pigs at six weeks of age weighing approximately 0.5 kg are euthanized by carbon monoxide. […] Isometric contractions are measured with a force displacement transducer and recorded on a chart recorder using Po-ne-mah Physiology Platform Software. […] Muscle contractions are detected immediately after adding Zsig98 protein and are recorded at concentrations as low as 1 ng/ml or 100 picomolar. The EC 50 of this response is measured. […]

COc1ccccc1CN[C@H]1CCCN[C@H]1c1ccccc1 (relative stereo) [(.+−.) cis-3-(2-methoxybenzylamino)-2-phenyl piperidine]
anti-emetic activity [1]: exhibited anti-emetic activity

B1: Mature Zsig98, synthetic, made by native ligation and refolded (PEP05014 and PEP05015) (peptide)
chain: EPAGSAVPAQSRPCVDCHAFEFMQRALQDLRKTACSLDARTETLLLQAERRALCACWPAGH
notes: also called zsig98 peptide; synthetic zsig98
binding result [2]: binds

B2: Zsig98: secreted polypeptide; mature form amino acids 35 to 95 of SEQ ID NO:2 (SEQ ID NO:18) (protein, listed as Homo sapiens)
chain: EPAGSAVPAQSRPCVDCHAFEFMQRALQDLRKTACSLDARTETLLLQAERRALCACWPAGH
modifications: not fully specified
activity in the presence of 5HT (strips of ileum): a secondary contraction is observed
